The record followed here is patent US20080249606A1 (published 2008).

Assay [1] concerns the target T1, Blocking Reagent (catalogue number 11112589001, Roche Diagnostics) immobilized in ELISA wells.
T1 construct: One molecule for all four plate types; The plate is named under assay in each row
Put plainly: ELISA, Blocking Reagent on Costar 9102 plate, tPA concentration series in PBS pH 7.3 with 10 mM εACA. A general note: An ELISA detects its analyte on a solid surface through an enzyme-linked reagent.

In assay [2] the target is T1, Blocking Reagent (catalogue number …). As to the kind of experiment: ELISA, Blocking Reagent on Nunc Immobilizer Amino plate.
The target is the same in assay [3]. As to the kind of experiment: ELISA, Blocking Reagent on Costar 9102 plate (second experiment, FIG. 2M).
Assay [4] deals with T2, BSA incubated overnight with dextran sulphate 500,000 Da (DXS500k) (bovine, UniProt P02769 25-607).
T2 construct: Same protein as m3, misfolded by contact with DXS500k (a non-protein polymer present in the mixture); also called BSA with DXS500k; DXS500k-protein mixture
T2 sequence (P02769 25-607 limits assumed): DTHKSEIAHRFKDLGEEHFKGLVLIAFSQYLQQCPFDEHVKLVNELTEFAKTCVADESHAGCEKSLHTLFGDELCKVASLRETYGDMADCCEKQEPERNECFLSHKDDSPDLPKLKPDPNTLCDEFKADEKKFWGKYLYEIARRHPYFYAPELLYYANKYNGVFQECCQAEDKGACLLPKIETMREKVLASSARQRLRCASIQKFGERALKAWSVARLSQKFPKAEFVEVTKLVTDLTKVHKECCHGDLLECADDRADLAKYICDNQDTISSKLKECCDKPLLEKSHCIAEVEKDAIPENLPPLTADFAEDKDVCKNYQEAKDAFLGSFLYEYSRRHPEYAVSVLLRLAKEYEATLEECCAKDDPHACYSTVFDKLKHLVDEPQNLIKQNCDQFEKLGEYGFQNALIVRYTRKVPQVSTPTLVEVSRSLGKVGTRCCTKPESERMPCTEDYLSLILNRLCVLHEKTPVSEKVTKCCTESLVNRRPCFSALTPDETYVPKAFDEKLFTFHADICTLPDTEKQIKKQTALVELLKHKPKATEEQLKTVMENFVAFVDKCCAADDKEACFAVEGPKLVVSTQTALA
Put plainly: ELISA, protein/DXS500k mixture immobilized on Greiner Microlon plate, tPA in 10 mM εACA, detection with antibody 374b.

Assay [5] addresses T1, Blocking Reagent (catalogue number …). As to the kind of experiment: ELISA, Blocking Reagent on Costar 2595 plate.
The target is the same in assay [6]. As to the kind of experiment: ELISA, Blocking Reagent on Greiner Microlon high-binding plate.

B1: tissue-type plasminogen activator (tPA, Actilyse, Boehringer-Ingelheim) (enzyme, UniProt P00750 36-562, looked up)
chain: SYQVICRDEKTQMIYQQHQSWLRPVLRSNRVEYCWCNSGRAQCHSVPVKSCSEPRCFNGGTCQQALYFSDFVCQCPEGFAGKCCEIDTRATCYEDQGISYRGTWSTAESGAECTNWNSSALAQKPYSGRRPDAIRLGLGNHNYCRNPDRDSKPWCYVFKAGKYSSEFCSTPACSEGNSDCYFGNGSAYRGTHSLTESGASCLPWNSMILIGKVYTAQNPSAQALGLGKHNYCRNPDGDAKPWCHVLKNRRLTWEYCDVPSCSTCGLRQYSQPQFRIKGGLFADIASHPWQAAIFAKHRRSPGERFLCGGILISSCWILSAAHCFQERFPPHHLTVILGRTYRVVPGEEEQKFEVEKYIVHKEFDDDTYDNDIALLQLKSDSSRCAQESSVVRTVCLPPADLQLPDWTECELSGYGKHEALSPFYSERLKEAHVRLYPSSRCTSQHLLNRTVTDNMLCAGDTRSGGPQANLHDACQGDSGGPLVCLNDGRMTLVGIISWGLGCGQKDVPGVYTKVTNYLDWIRDNMRP
notes: Bought drug product
Usually Kd stands for the concentration at which binding is half-saturated. For B1, the equilibrium dissociation constant (Kd) was 0.6 nM in assay [1]; 39 nM in assay [2]; roughly 0.5 nM in assay [3]; 30 nM in assay [5]; 23000 nM in assay [6]. Moreover, the “factor of increase of tPA binding against the protein incubated with buffer only” value in assay [4] stood at 1.3 fold.
